Laboratory results published in patent publication US20190248902A1 (published 2019).
Positions count from the first letter of the chain named.

T1: recombinant, soluble human ASGR-1 (human, UniProt P07306 62-291)
T1 construct: biotinylated in the binning assay; also called soluble huASGR-1; Soluble ASGR-1 (Amgen)
T1 sequence: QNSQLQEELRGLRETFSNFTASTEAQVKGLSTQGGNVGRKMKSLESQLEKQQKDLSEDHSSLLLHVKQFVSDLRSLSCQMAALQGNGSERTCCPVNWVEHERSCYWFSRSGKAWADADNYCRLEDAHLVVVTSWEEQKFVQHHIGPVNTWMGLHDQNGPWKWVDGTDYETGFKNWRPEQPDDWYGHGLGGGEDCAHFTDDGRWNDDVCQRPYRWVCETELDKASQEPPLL

B1: 64E2 (antibody, V domains shown)
VH: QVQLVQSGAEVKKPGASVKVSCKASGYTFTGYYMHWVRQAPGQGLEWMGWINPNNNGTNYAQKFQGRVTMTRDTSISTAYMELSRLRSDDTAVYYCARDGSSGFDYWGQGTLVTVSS
VL: DIQMTQSPSSVSASVGDRVTITCRASQGISRWLAWYQQKPGKAPKLLIYAASSLQSGVPSRFSGSGSGTDFTLTISSLQPEDFATYYCQQANSFPFTFGPGTKVDIK
notes: hybridoma mAb
B2: 53F2 (antibody, V domains shown)
VH: QVQLVQSGAEVKKPGASVKVSCKASGYTFTGYYLHWVRQAPGQGLEWMGWINPNRNGTNYAQNFQGRVTMTRDTSISTAYMELSRLKSDDTAVYYCARDGTSSFDYWGQGTLVTVSS
VL: B1 VL with R31K, K45N, I48L, R61K, I106V
notes: hybridoma mAb
B3: 49F10 (antibody, V domains shown)
VH: B2 VH with Y33H, L34M, R55N, G57A, M70L, K87R, Y106F
VL: B1 VL with L46V, S53T
notes: hybridoma mAb
B4: 70D1 (antibody, V domains shown)
VH: B2 VH with Y33H, L34M, R55S, G57A, N63K, K87R, G100S, T101I, F104W
VL: B1 VL with I29V, L73V
notes: hybridoma mAb
B5: 53F7 (antibody, V domains shown)
VH: B2 VH with Y33H, L34M, R55N, N63K, S84N, K87T
VL: B1 VL with T5S, K45N, T85I
notes: hybridoma mAb
B6: 51E9 (antibody, V domains shown)
VH: B2 VH with G26R, Y33H, L34I, R55T, N59Q, N63K, K87R
VL: B1 VL with R31S, A50V, S76R, N92K
notes: hybridoma mAb
B7: 4H6 (antibody, V domains shown)
VH: B2 VH with G31D, N52H, R55S, N56G, N63K, E82G, R85S, K87R
VL: B1 VL with A50G, T85I
notes: hybridoma mAb
B8: 57A7 (antibody, V domains shown)
VH: B2 VH with Y33H, L34I, G44D, R55N, N63K, K87R, T101R, S103G
VL: B1 VL with K45N, S53N
notes: hybridoma mAb
B9: 50D4 (antibody, V domains shown)
VH: B2 VH with Y33H, L34M, R55N, G57A, N63S, M70L, K87R, Y106F
VL: B1 VL with V19L, L46V, S53T, K107R
notes: hybridoma mAb
B10: 52G11 (antibody, V domains shown)
VH: B2 VH with N63K, Y80F, K87R
VL: B1 VL with R31K, I48L, G64A, I106V
notes: hybridoma mAb
B11: 56E5 (antibody, V domains shown)
VH: B2 VH with K23Q, Y33H, L34M, R55N, G57A, N63K, S84R, K87R, Y95H
VL: B1 VL with S30R, R31K
notes: hybridoma mAb
B12: 10G6 (antibody, V domains shown)
VH: B2 VH with G31A, Y33H, L34M, R55N, N63K, K87R, A97G, G100V
VL: B1 VL with R31K, L46I, S52Y, S60A, S76R
notes: hybridoma mAb
B13: 55B1 (antibody, V domains shown)
VH: B2 VH with L34F, N52H, R55N, G57A, N63K, K87R, R98K, T101R
VL: B1 VL with G28V, K45N, I106L
notes: hybridoma mAb
B14: 154F4 (antibody, V domains shown)
VH: QVQLVESGGGVVQPGRSLRLSCAASGFTFSSYGMHWVRQAPGKGLEWVAVIWYDGSNKYYADSVKGRFTISRDNSKNTLYLQMNSLRAEDTAVYYCAREDSYCSGTSCPYYYYYGMDVWGQGTTVTVSS
VL: SYELTQPPSVSVSPGQTASITCSGDKLGNKYVCWYQQKPGQSPVEVIYKDSKRPSGIPERFSGSNSGNTGTLTISGTQAMDEADYYCQAWDNSTLVFGGGTKLTVL
notes: hybridoma mAb
B15: 159H8 (antibody, V domains shown)
VH: B14 VH with S31T, E99D, D100R, S101V, Y102S, G105S
VL: SYELTQPPSVSVSPGQTASITCSGDKLGDKYVCWYQQKPGQSPVLVIYQDRKRPSGIPERFSGSNSGNTATLTISGTQALDEADYYCQAWGNSSFVVFGGGTKLTVL
notes: hybridoma mAb
B16: 160B12 (antibody, V domains shown)
VH: B14 VH with E99D, D100R, S101V, Y102S, G105S
VL: B15 VL with Y2D, P7S, R51S
notes: hybridoma mAb
B17: 27E7 (antibody, V domains shown)
VH: B14 VH with G105S
VL: B14 VL with V32A, K49Q, S55L, G70A, N92S, L95V
notes: hybridoma mAb
B18: 22G5 (antibody, V domains shown)
VH: EVQLLESGGGLVQPGGSLRLSCAASGFTFSSYAMNWVRQAPGMGLEWVSVISRSGGYTYYADSVKGRFTISRDNSKNTLYLQMNSLRAEDTAVYYCASRLAVAGSEAFDIWGQGTLVTVSS
VL: DIQMTQSPSSLSASVGDRVTITCRASQNISSYLNWYQQKQGKAPKLLIYAASSLQNGVPSRFSGRGSGTDFTLTISSLQPEDFATYYCQQSYRTPLFTFGPGTKVDFK
notes: hybridoma mAb
B19: 177D2 (antibody, V domains shown)
VH: QVQLVESGGGVVQPGRSLRLSCAASGFTFSSYGMDWVRQAPGKGLEWVAIIWFDGSNKYYADSVKGRFTISRDNSKNTLYLQMNSLRAEDTAVYYCARAYCGGDCYFPHLHYYGMDVWGQGTTVTVSS
VL: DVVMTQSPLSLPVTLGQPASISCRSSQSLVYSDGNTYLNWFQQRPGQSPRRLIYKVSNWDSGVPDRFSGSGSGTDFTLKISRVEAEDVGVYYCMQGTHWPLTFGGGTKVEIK
notes: hybridoma mAb
B20: 175D10 (antibody, V domains shown)
VH: QVQLVQSGAEVKKPGASVKVSCKASGYTFTNYDLNWVRQATGQGLEWMGWMHPNSGNTGYAQKFQGRVTMTRNTSISTVYMELSSLRSEDTAVYYCAYSSGWYYFDYWGQGTLVTVSS
VL: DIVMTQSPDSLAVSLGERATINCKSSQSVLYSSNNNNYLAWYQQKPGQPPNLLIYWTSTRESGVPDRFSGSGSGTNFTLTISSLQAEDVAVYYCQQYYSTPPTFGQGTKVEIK
notes: hybridoma mAb
B21: 25A4 (antibody, V domains shown)
VH: B20 VH with Q3L, K13R, L34I, H52Y, V79A, Y98S
VL: DIVMTQFPDSLAVSLGERATIKCKSSQSVLYSSHNNNYLAWYQQKPGQPPKLLLYWASTRESGVPDRFSGSGSGTEFTLTISSLEAEDVAVYYCQQYYSTPPTFGQGTKVEIK
notes: hybridoma mAb
B22: 26C4 (antibody, V domains shown)
VH: B20 VH with L34I, T41S, H52N, K63R, S77N, V79A, Y98S
VL: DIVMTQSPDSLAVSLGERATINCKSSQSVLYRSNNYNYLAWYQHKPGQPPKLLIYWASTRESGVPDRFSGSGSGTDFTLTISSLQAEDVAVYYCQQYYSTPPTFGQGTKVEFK
notes: hybridoma mAb
B23: 148E10 (antibody, V domains shown)
VH: QVQLVESGGGVVQPGRSLRLSCAASGFTFSSYGMHWVRQAPGKGLEWVAVIWFDGSNKYYVDSVKDRFTISRDNSKNTLYLQMNSLRAEDTAVYYCARDRVEGSGTPYYYYGMDVWGQGTTVTVSS
VL: SYELTQPPSVSVSPGQTASITCSGDKLGNKYVCWYQQRPGHAAVLIIYQDSKRPSGIPERFSGSNSGNTATLTISGTQAMDEADYFCQAWDRNTYVVFGGGTKLTVL
notes: hybridoma mAb

target: T1, recombinant, soluble human ASGR-1; test: Octet BLI dissociation, pH 5.6 plus calcium
Description: (§1) The relative dissociation of ASGR-1 from antibodies was measured using a label-free assay on an OctetHTX instrument (Fortebio). Antibody samples were captured on anti-HuFc kinetic biosensors (ForteBio cat #18-5064) at 5 ug/mL in assay buffer (10 mM Tris, 0.1% Triton, 150 mM NaCl, 1 mg/mL BSA, 1 mM CaCl2, pH7.4) for three minutes. A one minute baseline stabilization step was performed in assay buffer. Soluble ASGR-1 (Amgen) at 6 ug/ml in assay buffer was added and association to the antibodies was monitored for two minutes. Subsequent dissociation of ASGR-1 from the antibodies was performed by incubating the ASGR-1-mAb complexes for 10 minutes under each of the following conditions:
(§2) The binding signal at the end of the 2 minute association phase for each dissociation experiment was set to 100% and used to represent the maximal level of ASGR-1 binding. After 1 minute of dissociation, the percentage of ASGR-1 remaining bound was calculated. The lower the percent remaining at a given time point indicates increased levels of dissociation in response to the test conditions (ie. different pH and/or calcium concentrations). The change in the percentage of ASGR-1 remaining bound in response to each test condition relative to the percent remaining in the control conditions (ie. pH 7.4+calcium) was determined. Cut-offs for an antibody to be categorized as being sensitive to a particular condition were set to >10% (ie. if >10% of the ASGR-1 dissociates from the antibody under a particular test condition compared to control condition, it was deemed sensitive to that condition). The analysis was done using the 1 minute dissociation time point (except for mAb 149A1 which was binned based on the 4 minute dissociation time point). Using this analysis, the ASGR-1-binding, receptor-ligand blocking antibodies were separated into groups according to their dissociation profiles in response to pH and calcium (Table 7.3). Antibodies belonging to each category were observed.

| % Change Compared to pH 7.4 + Calcium [%] | Binder |
| --- | --- |
| 29 | B1 |
| 1 | B2 |
| -2 | B3 |
| 12 | B4 |
| 3 | B5 |
| -5 | B6 |
| -1 | B7 |
| 13 | B8 |
| 0 | B9 |
| 1 | B10 |
| -6 | B11 |
| 4 | B12 |
| -2 | B13 |
| 41 | B14 |
| 10 | B15 |
| 8 | B16 |
| 35 | B17 |
| 35 | B18 |
| 2 | B19 |
| -3 | B20 |
| -3 | B21 |
| 2 | B22 |
| 19 | B23 |

target: T1, recombinant, soluble human ASGR-1; test: Octet BLI dissociation, pH 5.6 minus calcium
Description: as §1, §2

| % Change Compared to pH 7.4 + Calcium [%] | Binder |
| --- | --- |
| 49 | B1 |
| 13 | B2 |
| 8 | B3 |
| 29 | B4 |
| 13 | B5 |
| 2 | B6 |
| 2 | B7 |
| 29 | B8 |
| 9 | B9 |
| 13 | B10 |
| -1 | B11 |
| 15 | B12 |
| 4 | B13 |
| 67 | B14 |
| 26 | B15 |
| 22 | B16 |
| 46 | B17 |
| 10 | B19 |
| 2 | B20 |
| -1 | B21 |
| 2 | B22 |
| 33 | B23 |

target: T1, recombinant, soluble human ASGR-1; test: Octet BLI dissociation, pH 7.4 minus calcium
Description: as §1, §2

| % Change Compared to pH 7.4 + Calcium [%] | Binder |
| --- | --- |
| 48 | B1 |
| 15 | B2 |
| 4 | B3 |
| 17 | B4 |
| 9 | B5 |
| 3 | B6 |
| 5 | B7 |
| 13 | B8 |
| 6 | B9 |
| 15 | B10 |
| 1 | B11 |
| 7 | B12 |
| 5 | B13 |
| 10 | B14 |
| 6 | B15 |
| 6 | B16 |
| 20 | B17 |
| 40 | B18 |
| 3 | B19 |
| 4 | B20 |
| 2 | B21 |
| 3 | B22 |
| 7 | B23 |
